In US20140087995A1 (published 2014):
Numbered stars: 1 amine (or outer) side, 2 acyl side, 3 side chain; on linkers, the order of the positions; unused ones are H or OH. Bridge positions count the residues as written; N and C are the ends. Side chains are listed from the residue outwards. Ends that are not written are not given here. * marks the point of attachment. C20 diacid = O=C(O)CCCCCCCCCCCCCCCCCCC(=O)*; γGlu = O=C(O)[C@H](CCC(=O)[*:2])N[*:1]

T1: human calcitonin receptor (human, UniProt P30988 25-474)
T1 sequence (looked up): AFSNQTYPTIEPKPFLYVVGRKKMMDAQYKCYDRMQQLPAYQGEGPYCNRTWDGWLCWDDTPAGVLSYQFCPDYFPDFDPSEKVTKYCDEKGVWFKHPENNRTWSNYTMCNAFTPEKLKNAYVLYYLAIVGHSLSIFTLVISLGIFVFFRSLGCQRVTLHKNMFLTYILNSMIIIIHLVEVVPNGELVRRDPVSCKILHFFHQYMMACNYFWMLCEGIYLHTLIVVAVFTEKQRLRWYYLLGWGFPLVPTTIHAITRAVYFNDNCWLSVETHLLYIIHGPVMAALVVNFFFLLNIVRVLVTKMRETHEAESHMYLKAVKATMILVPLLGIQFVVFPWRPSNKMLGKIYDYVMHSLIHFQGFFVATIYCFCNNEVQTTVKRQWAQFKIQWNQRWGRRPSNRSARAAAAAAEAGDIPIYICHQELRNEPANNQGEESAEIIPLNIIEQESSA


Target: T1, human calcitonin receptor
Assay: cell-based or functional assay

Binder	hCTR funct. EC50 (CRE luciferase reporter, BHK cells) [pM]
{C20 diacid-γGlu}-KCNTATCATQRLAEFLRHSSPNFGAIPSSTNVGSNTP-NH2 (disulfide 2-7; SMILES CC[C@H](C)[C@H](NC(=O)[C@H](C)NC(=O)CNC(=O)[C@H](Cc1ccccc1)NC(=O)[C@H](CC(N)=O)NC(=O)[C@@H]1CCCN1C(=O)[C@H](CO)NC(=O)[C@H](CO)NC(=O)[C@H](Cc1c[nH]cn1)NC(=O)[C@H](CCCNC(=N)N)NC(=O)[C@H](CC(C)C)NC(=O)[C@H](Cc1ccccc1)NC(=O)[C@H](CCC(=O)O)NC(=O)[C@H](C)NC(=O)[C@H](CC(C)C)NC(=O)[C@H](CCCNC(=N)N)NC(=O)[C@H](CCC(N)=O)NC(=O)[C@@H](NC(=O)[C@H](C)NC(=O)[C@@H]1CSSC[C@H](NC(=O)[C@H](CCCCN)NC(=O)CC[C@H](NC(=O)CCCCCCCCCCCCCCCCCCC(=O)O)C(=O)O)C(=O)N[C@@H](CC(N)=O)C(=O)N[C@@H]([C@@H](C)O)C(=O)N[C@@H](C)C(=O)N[C@@H]([C@@H](C)O)C(=O)N1)[C@@H](C)O)C(=O)N1CCC[C@H]1C(=O)N[C@@H](CO)C(=O)N[C@@H](CO)C(=O)N[C@H](C(=O)N[C@@H](CC(N)=O)C(=O)N[C@H](C(=O)NCC(=O)N[C@@H](CO)C(=O)N[C@@H](CC(N)=O)C(=O)N[C@H](C(=O)N1CCC[C@H]1C(N)=O)[C@@H](C)O)C(C)C)[C@@H](C)O, Synthetic acylated analogue of human amylin; also called compound 8)	87
K([γGlu-γGlu-C20 diacid])CNTATCATQRLAEFLRHSSPNFGAIPSSTNVGPETP-NH2 (disulfide 2-7; N-terminus assumed; SMILES CC[C@H](C)[C@H](NC(=O)[C@H](C)NC(=O)CNC(=O)[C@H](Cc1ccccc1)NC(=O)[C@H](CC(N)=O)NC(=O)[C@@H]1CCCN1C(=O)[C@H](CO)NC(=O)[C@H](CO)NC(=O)[C@H](Cc1c[nH]cn1)NC(=O)[C@H](CCCNC(=N)N)NC(=O)[C@H](CC(C)C)NC(=O)[C@H](Cc1ccccc1)NC(=O)[C@H](CCC(=O)O)NC(=O)[C@H](C)NC(=O)[C@H](CC(C)C)NC(=O)[C@H](CCCNC(=N)N)NC(=O)[C@H](CCC(N)=O)NC(=O)[C@@H](NC(=O)[C@H](C)NC(=O)[C@@H]1CSSC[C@H](NC(=O)[C@@H](N)CCCCNC(=O)CC[C@H](NC(=O)CC[C@H](NC(=O)CCCCCCCCCCCCCCCCCCC(=O)O)C(=O)O)C(=O)O)C(=O)N[C@@H](CC(N)=O)C(=O)N[C@@H]([C@@H](C)O)C(=O)N[C@@H](C)C(=O)N[C@@H]([C@@H](C)O)C(=O)N1)[C@@H](C)O)C(=O)N1CCC[C@H]1C(=O)N[C@@H](CO)C(=O)N[C@@H](CO)C(=O)N[C@H](C(=O)N[C@@H](CC(N)=O)C(=O)N[C@H](C(=O)NCC(=O)N1CCC[C@H]1C(=O)N[C@@H](CCC(=O)O)C(=O)N[C@H](C(=O)N1CCC[C@H]1C(N)=O)[C@@H](C)O)C(C)C)[C@@H](C)O, Synthetic acylated analogue of human amylin)	102
K([γGlu-C20 diacid])CNTATCATQRLAHFLRHSSPNFGAIPSSTNVGPNTP-NH2 (disulfide 2-7; N-terminus assumed; SMILES CC[C@H](C)[C@H](NC(=O)[C@H](C)NC(=O)CNC(=O)[C@H](Cc1ccccc1)NC(=O)[C@H](CC(N)=O)NC(=O)[C@@H]1CCCN1C(=O)[C@H](CO)NC(=O)[C@H](CO)NC(=O)[C@H](Cc1c[nH]cn1)NC(=O)[C@H](CCCNC(=N)N)NC(=O)[C@H](CC(C)C)NC(=O)[C@H](Cc1ccccc1)NC(=O)[C@H](Cc1c[nH]cn1)NC(=O)[C@H](C)NC(=O)[C@H](CC(C)C)NC(=O)[C@H](CCCNC(=N)N)NC(=O)[C@H](CCC(N)=O)NC(=O)[C@@H](NC(=O)[C@H](C)NC(=O)[C@@H]1CSSC[C@H](NC(=O)[C@@H](N)CCCCNC(=O)CC[C@H](NC(=O)CCCCCCCCCCCCCCCCCCC(=O)O)C(=O)O)C(=O)N[C@@H](CC(N)=O)C(=O)N[C@@H]([C@@H](C)O)C(=O)N[C@@H](C)C(=O)N[C@@H]([C@@H](C)O)C(=O)N1)[C@@H](C)O)C(=O)N1CCC[C@H]1C(=O)N[C@@H](CO)C(=O)N[C@@H](CO)C(=O)N[C@H](C(=O)N[C@@H](CC(N)=O)C(=O)N[C@H](C(=O)NCC(=O)N1CCC[C@H]1C(=O)N[C@@H](CC(N)=O)C(=O)N[C@H](C(=O)N1CCC[C@H]1C(N)=O)[C@@H](C)O)C(C)C)[C@@H](C)O, Synthetic acylated analogue of human amylin)	40
K([γGlu-γGlu-C20 diacid])CNTATCATQRLAEFLRHSSPNFGAIPSSTNVGSNTP-NH2 (disulfide 2-7 (inferred), Synthetic acylated analogue of human amylin; also called compound 13)	470
K([γGlu-C20 diacid])CNTATCATQRLAEFLRHSSPNFGAIPSSTNVGPNTP-NH2 (disulfide 2-7; N-terminus assumed; SMILES CC[C@H](C)[C@H](NC(=O)[C@H](C)NC(=O)CNC(=O)[C@H](Cc1ccccc1)NC(=O)[C@H](CC(N)=O)NC(=O)[C@@H]1CCCN1C(=O)[C@H](CO)NC(=O)[C@H](CO)NC(=O)[C@H](Cc1c[nH]cn1)NC(=O)[C@H](CCCNC(=N)N)NC(=O)[C@H](CC(C)C)NC(=O)[C@H](Cc1ccccc1)NC(=O)[C@H](CCC(=O)O)NC(=O)[C@H](C)NC(=O)[C@H](CC(C)C)NC(=O)[C@H](CCCNC(=N)N)NC(=O)[C@H](CCC(N)=O)NC(=O)[C@@H](NC(=O)[C@H](C)NC(=O)[C@@H]1CSSC[C@H](NC(=O)[C@@H](N)CCCCNC(=O)CC[C@H](NC(=O)CCCCCCCCCCCCCCCCCCC(=O)O)C(=O)O)C(=O)N[C@@H](CC(N)=O)C(=O)N[C@@H]([C@@H](C)O)C(=O)N[C@@H](C)C(=O)N[C@@H]([C@@H](C)O)C(=O)N1)[C@@H](C)O)C(=O)N1CCC[C@H]1C(=O)N[C@@H](CO)C(=O)N[C@@H](CO)C(=O)N[C@H](C(=O)N[C@@H](CC(N)=O)C(=O)N[C@H](C(=O)NCC(=O)N1CCC[C@H]1C(=O)N[C@@H](CC(N)=O)C(=O)N[C@H](C(=O)N1CCC[C@H]1C(N)=O)[C@@H](C)O)C(C)C)[C@@H](C)O, Synthetic acylated analogue of human amylin)	90

Second part, the binder after the results:

hCTR funct. EC50 (CRE luciferase reporter, BHK cells) [pM]	Binder
238	{C20 diacid-γGlu-γGlu}-KCNTATCATQRLAEFLRHSSPNFGAIPSSTNVGSNTP-NH2 (disulfide 2-7; SMILES CC[C@H](C)[C@H](NC(=O)[C@H](C)NC(=O)CNC(=O)[C@H](Cc1ccccc1)NC(=O)[C@H](CC(N)=O)NC(=O)[C@@H]1CCCN1C(=O)[C@H](CO)NC(=O)[C@H](CO)NC(=O)[C@H](Cc1c[nH]cn1)NC(=O)[C@H](CCCNC(=N)N)NC(=O)[C@H](CC(C)C)NC(=O)[C@H](Cc1ccccc1)NC(=O)[C@H](CCC(=O)O)NC(=O)[C@H](C)NC(=O)[C@H](CC(C)C)NC(=O)[C@H](CCCNC(=N)N)NC(=O)[C@H](CCC(N)=O)NC(=O)[C@@H](NC(=O)[C@H](C)NC(=O)[C@@H]1CSSC[C@H](NC(=O)[C@H](CCCCN)NC(=O)CC[C@H](NC(=O)CC[C@H](NC(=O)CCCCCCCCCCCCCCCCCCC(=O)O)C(=O)O)C(=O)O)C(=O)N[C@@H](CC(N)=O)C(=O)N[C@@H]([C@@H](C)O)C(=O)N[C@@H](C)C(=O)N[C@@H]([C@@H](C)O)C(=O)N1)[C@@H](C)O)C(=O)N1CCC[C@H]1C(=O)N[C@@H](CO)C(=O)N[C@@H](CO)C(=O)N[C@H](C(=O)N[C@@H](CC(N)=O)C(=O)N[C@H](C(=O)NCC(=O)N[C@@H](CO)C(=O)N[C@@H](CC(N)=O)C(=O)N[C@H](C(=O)N1CCC[C@H]1C(N)=O)[C@@H](C)O)C(C)C)[C@@H](C)O, Synthetic acylated analogue of human amylin; also called compound 14)
185	K([γGlu-C20 diacid])CNTATCATQRLAEFLRHSSPNFGAIPSSTNVGSNTP-NH2 (disulfide 2-7; N-terminus assumed; SMILES CC[C@H](C)[C@H](NC(=O)[C@H](C)NC(=O)CNC(=O)[C@H](Cc1ccccc1)NC(=O)[C@H](CC(N)=O)NC(=O)[C@@H]1CCCN1C(=O)[C@H](CO)NC(=O)[C@H](CO)NC(=O)[C@H](Cc1c[nH]cn1)NC(=O)[C@H](CCCNC(=N)N)NC(=O)[C@H](CC(C)C)NC(=O)[C@H](Cc1ccccc1)NC(=O)[C@H](CCC(=O)O)NC(=O)[C@H](C)NC(=O)[C@H](CC(C)C)NC(=O)[C@H](CCCNC(=N)N)NC(=O)[C@H](CCC(N)=O)NC(=O)[C@@H](NC(=O)[C@H](C)NC(=O)[C@@H]1CSSC[C@H](NC(=O)[C@@H](N)CCCCNC(=O)CC[C@H](NC(=O)CCCCCCCCCCCCCCCCCCC(=O)O)C(=O)O)C(=O)N[C@@H](CC(N)=O)C(=O)N[C@@H]([C@@H](C)O)C(=O)N[C@@H](C)C(=O)N[C@@H]([C@@H](C)O)C(=O)N1)[C@@H](C)O)C(=O)N1CCC[C@H]1C(=O)N[C@@H](CO)C(=O)N[C@@H](CO)C(=O)N[C@H](C(=O)N[C@@H](CC(N)=O)C(=O)N[C@H](C(=O)NCC(=O)N[C@@H](CO)C(=O)N[C@@H](CC(N)=O)C(=O)N[C@H](C(=O)N1CCC[C@H]1C(N)=O)[C@@H](C)O)C(C)C)[C@@H](C)O, Synthetic acylated analogue of human amylin; also called compound 12)
